From the DeepSol protein solubility set

Test: soluble on expression in E. coli; label from the status in PepcDB or PDB records
With “MRSRERNRRPTLDELDRILTYFEQMRDRRRQEIDMLRVIVFALFSTRRQEEITRIRWDLLNESEQSALVTDMKNPGQKYGNDVWCHMPDEAWRVLQSMPKVADEVFPYNSRSVSASFTRACNFLEIEDLHFHDLRHDGVSRLFEMGWDIPKVASVSGHRDWNSMRRYTHLRGNGDPYAGWQWIERVISGPVIEAQVRVKRRAAGRAPLEHHHHHH” the “soluble on expression in E. coli” value was “not soluble”.
In the case of “MAKGYWIAQVDVRDSERYKDYVSTAKPAFERFGANFLARGGSVTELEGTARARNVVIEFPSVQHAIDCYNSPEYQAAAKIRQEVADAEMMIVEGI”, the “soluble on expression in E. coli” value is reported as “soluble”.
In the case of “GSSHHHHHHSSGRENLYFQGHMPKRRKSVTGEIVLITGAGHGIGRLTAYEFAKLKSKLVLWDINKHGLEETAAKCKGLGAKVHTFVVDCSNREDIYSSAKKVKAEIGDVSILVNNAGVVYTSDLFATQDPQIEKTFEVNVLAHFWTTKAFLPAMTKNNHGHIVTVASAAGHVSVPFLLAYCSSKFAAVGFHKTLTDELAALQITGVKTTCLCPNFVNTGFIKNPSTSLGPTLEPEEVVNRLMHGILTEQKMIFIPSSIAFLTTLERILPEGS”, the “soluble on expression in E. coli” value is reported as “soluble”.
With “MAHHHHHHMCVRTWQKCPGLVSVKHRCIGGTLTNDGLRTEQYSHAPGPVRYFFLCLYDALLAHQQRLDQYWLNPLYQLNVHSFPFVYLYIVHFNTKIIFSFSFKANKNFFPLRLTTGKNCRKTKSTCRQPPTPNIDDRSSL” the “soluble on expression in E. coli” value was “not soluble”.
In the case of “MSKLSFRARALDASKPLPVFRCEDLPDLHEYASINRAVPQMPTGMEKEEESVMLRFFSLYFYRLYPPSTRSLLCASLHKMAAMFLPDGNGDGAHTSPLVIPHSGWLVGLIRISL”, the “soluble on expression in E. coli” value is reported as “not soluble”.
In the case of “MAGDPMTEQDIYKLLADGERVTLECKKAQNGVPNSLWETYSAFANTNGGILLLGVYENVAEKDSLMRFTITGVEDADKIRKDLWNTINSREKVNVNLLHDEDVQTISVNGKEVIAINVPRADYNLRPVYINNNLMRGTYRRNHEGDYHCTEQMIKMMVRDAYEDGNDRMFLEYYTMDDIDIPTLEGYRVMFKTNNPEHIWNSLDHKEFLMQLGGYVVNRKDGTEGLTIAGLLMFGKGLPVRERFDYLRMDYIDKSNLIGDQRYSDRLTYDGTWENNLFNFIRMVVPRLTRDIPRPFQMDGIIRKDDTPQHKAVREAFTNMIIHADLMLNGLLRVEKYDDRFVLSNPGLLKLPVEQIYAGGESKARNQRMQHMLRMIGYGENLGSGFPLILSAWNEKHWLKPELVEQPELMQVKLILHIENRVYVTKDVTKDVTKELTERQQIILEFMQADGTITISEMSQKTNVTERTIKRDIESLTEKGILSREGGRKEGRWVIRKILEHHHHHH”, the “soluble on expression in E. coli” value is reported as “soluble”.
In the case of “MMKRARIIYNPTSGRELFKKSLPEVLQKLEQAGYEASCHATTGPGDATVAARQAADRKFDVVIAAGGDGTLNEVVNGLVGHEHRPKFGIIPVGTTNDFARAIGVPRSIEEAADIICEGKTVPLDLGRANDTYFINIAGGGRITELTYEVPSKLKTVLGQLAYYLKGIEMLPSLHPTYVEIEYDGKLLQEEITMFLITNTRSVGGFEKVAPYASINDGLFDLLVLKKGSIADLIKAATQAQRGEHINNPKVLYTQANRIKVHSPDKLMINLDGEYGGDAPMEFENIYHCLELFVPEHQEDAL”, the “soluble on expression in E. coli” value is reported as “not soluble”.
For “MKQDGEEGTEEDTEEKCTICLSILEEGEDVRRLPCMHLFHQVCVDQWLITNKKCPICRVDIEAQLPSES”, the “soluble on expression in E. coli” value was “soluble”.
In the case of “SVSGLAILYLRRRRAPLARLRQAIQRCEFFVCYQPIVSLSDGRCVGAEALVRWRQQDGTLILPDQFIPLAERSGLILPITDQVIAASMRELGPLLVADRSLHIAINVSVKDIESGRLLDVLALALQDTGLYRKQLWIEATERSFMDARAAREHIVRLREAGYAVVIDDFGTGYSNLQYLQQLPLDALKIDKSFIDTVGRDVTNTAVASHIIDIAKELGMRTIAEGVEREEQLVYLRARGVDMAQGWLFSSP”, the “soluble on expression in E. coli” value is reported as “not soluble”.
For “MIKNRQEILFLYDVTDANPNGDPLDENKPRIDEETGINIVTDVRLKRTIRDYLYDYKGFDGSNGKDIFVREIESEKGGIKDGKARAKDFNENVDEILQKAIDIRLFGGVIPLDKASITFTGPVQFNMGRSLNKVNLKHIKGTGAFASGEGKAQKTFREEYIVPYSIIAFHGIINENAAKRTGLTDEDVDLLDDAMWNGTKNLITRSKMGHMPRLMLRVVYKPGENFFIGDLQNRISLNFDVEEEKIRSIKDFSIKLDELIDELANYGDKIEKVVFVADKNLRLSYKGREINLKDIKDIRFEEKTF”, the “soluble on expression in E. coli” value was “soluble”.
In the case of “MTSKIALFDQTLIASLLQPLSLNQPDFKAYKTKVKLKISEQRNETSGEKELKFEISRSDDFEFLFSETLNNEKYQILARDHDLTVDFDAFPKVIIQHLLCKNIVKNLEEDGEVDARKKAGYHSIADPGKPTEINIILDAEKNFCSFELFSKTPISKGKIFSIKLHAVRGDHLISHLLKICSSQAVKLSTFYKSADELASLRQKCGDLEKQVEKLSGVKEEFEEMSEKFKELEDEVELVKEERENIRLLVEDKEDEVADLKQDTESLQKQLEENQEELEIVGNMLREEQGKVDQLQKRNVAHQKEIGKLRAELGTAQRNLEKADQLLKRNSQQQNQQSLDMRKLGELEADLKEKDSMVESLTETIGILRKELENEKLKAAENMDSFEKLSMENENLKEKIAHYRAQRFSPAPSGLPGLQTGLTNRLTPSFKPVLGPHTPYGANLNSRTPFRDNTTLNFQNSTIATPHAFRFNSQLIADETTGSSVTNTPPAQR”, the “soluble on expression in E. coli” value is reported as “not soluble”.
With “MPVVYKRILLKLSGEALMGDGHYGIDRAVVEHIVVEVAGVLQLGVEVAIVVGGGNIFRGMKSAGDGMDRVTADYMGMLATTMNALALHDAMRRNGVVSRVQSALRIDQVVEPYVRGKALRYLDERKVVVFAAGTGNPFFTTDTAAALRGMEMNANIVLKATKVDGIYTSDPLKNKDAQRFQSLTFDEAISKNLQVMDATALTLCRDQKLPINVFSIFKTGALKRVIMGEDEGTSVFV” the “soluble on expression in E. coli” value was “not soluble”.
With “MLKVFADRGGTFTDIVAVTHNQEIIERLSKSTERFLIVPLPNQEWIIVYKLLSENPEQYQDAVIQGIRDIIGLSRNEPISDEAIEVVKMGTTVATNALLERKGDRVVLLITTGFKDALRIGYQNRPNIFAQRIVLPTMLYEQVIEVEERYDAQGNELTPVNIAQVKEDLQAVYHTGIRSCAIILMHSDRYPIHEQQVAQIAQEIG” the “soluble on expression in E. coli” value was “not soluble”.
With “MSRTKDQAAAVLPTLLSALRLPSISRNWKHLTDTADRDGWPAANLLACLLEIEMAERASRRIQRHREQSGLPAGKTFATFDFDFPSGIRKPHLLSLATGEGWIESGGNILIFGQSGTGKTHVIAAIGHALIDAGRRVLFSTTTEMVQKLQAARRELSLPSMLDKLDKYDLIVLDSCAVRRDVESPSLGATFARRVARATQHKAAALEHHHHHH” the “soluble on expression in E. coli” value was “not soluble”.
In the case of “MKNNKDEKIRISIINGFLGSGKTTLLTHYISELLKNDEKIKIIMNEFGTFDIDSNSISNEIEVHSLINGCVCCDLKQELVYELKAIALKGDVNHVIIETTGIAHPLELLVACQDPQIVNFFEKPIIYGVLDATRFLERHQYTENTVSLMEDQLKLSDMIIINKIDLITDDRLERIDKQLGMICASIPTYKTTYGKVSLEELDLTVKDREISSHHHHHHGIKSMTYTFTGPIDRQLFYQFIMKLPESVLRLKGYVSFRDQPNAIYEFQYAYGLPDYGIIGMQLPLTIVIIGETLDTNHIRNQLDMLQFT”, the “soluble on expression in E. coli” value is reported as “not soluble”.
For “MGSDKIHHHHHHMAFQNIQRFQNQDLIRVGNDDNYLLLAPHYGGRLVRWVRHGEEILYWPEAADWSRPAKIRGGNPLLFPFIGRHFADGEAGRWRDANGTTHTLPQHGFARDLPFTVVAADDDKIVMALESSDSTRAGYPYAFRFEASYVMLEDGVEVALRSENTGSDRLPYYAGHHFYFSLPAAHRPDTRLLLPEAVRLRQEPDGRLTHAIQGEPAYALDDDRLQDTFHALRGGGSVTLAMPGRTLAIDLDVPGCVAWHAVTTWTESKDADFYCVEPWLGLPDAIHHGHGLRWLEPGEQETAVCRVRVVA”, the “soluble on expression in E. coli” value was “not soluble”.
With “MATDTTVQLRAGWQGRFYEDFAVGDVYKHPYGRTVTETDNVWFTNLTMNANPMHFNAAYASGTEFDERLVNGLFVIALSVGMSVVDVSANATANLGYDDIQHHAPVFHGDTLFAESEVLSKRESESRPHVGMVTTELRTYTQDGELVLSLERTPMVRKRGAADPLEHHHHHH” the “soluble on expression in E. coli” value was “not soluble”.
In the case of “MNNNDVLRKLRYTFNFNDKQMVAIFASAGEEVSREQVSQWLKKDTDSDFVALFDTKLAVFLNGFINEKRG”, the “soluble on expression in E. coli” value is reported as “not soluble”.
In the case of “MHKRFAALAAPLLYLACASAQADTMRCGSALVSVGDRAFEVQQKCGDPDHRDDVGYTLGSYDRREFKVEEWVYGPRNGVTYILTFEANKLKRIEFKR”, the “soluble on expression in E. coli” value is reported as “not soluble”.
With “MPHNPIRVVVGPANYFSHPGSFNHLHDFFTDEQLSRAVWIYGKRAIAAAQTKLPPAFGLPGAKHILFRGHCSESDVQQLAAESGDDRSVVIGVGGGALLDTAKALARRLGLPFVAVPTIAATCAAWTPLSVWYNDAGQALHYEIFDDANFMVLVEPEIILNAPQQYLLAGIGDTLAKWYEAVVLAPQPETLPLTVRLGINNAQAIRDVLLNSSEQALSDQQNQQLTQSFCDVVDAIIAGGGMVGGLGDRFTRVAAAHAVHNGLTVLPQTEKFLHGTKVAYGILVQSALLGQDDVLAQLTGAYQRFHLPTTLAELEVDINNQAEIDKVIAHTLRPVESIHYLPVTLTPDTLRAAFKKVESFKA” the “soluble on expression in E. coli” value was “soluble”.
In the case of “MLLVSGCSGELYSSHTHSLRWFCQSPEGCEREAEVKALARVLLYTDTFTLYTDYGQFAVDFVQRVPSDELPRECDALYGLSLFGHELESSTLCSVGGDAYEMRISVPNRNPSSASEWLAEMRPL”, the “soluble on expression in E. coli” value is reported as “not soluble”.
With “MGSDKIHHHHHHMNLAGAQLTENELMRLTVSNIAQATSLPALIQEHGRWCCQRCGDRKPVQLPDGRFYCSACVSLGCLTNRDLLYRFEQPHRPVGDGLLTWHGTLTPAQQKASTALQTSVTAGADHLIWAVTGAGKTEMLFPTISQMVQQGKRVAIVSPRIDVIRELAPRLRTAFATTPIAVRYGGHFDQTDSDLVLATVHQLLRFHRAFDLIVVDEVDAFPMAGTPMLHRAVQGARRGPVVYLTATPDRPLKAAMRKGLMVSRLFRRFHGHPLPVPAIRLMNFKKLPSQLPPAIVKWVRDVVATGRSCLLFVPKISWAPQIAALVQRNGLRVAGVASTDRLRAEKITAFRQRQIQVLVTTTILERGVTVSKCAVGVVAAADRAFTASALVQIAGRAGRAADSADDPVVFFTDRYTLALLAAKRQIVMMNGR” the “soluble on expression in E. coli” value was “not soluble”.
With “MGSDKIHHHHHHMKTRDRIVHASLELFNLNGEPGITTNHIAAHLGMSPGNLYYHFRNKEDIIRSIFDLYQQHLEKGFQPYENKQVDMALLMGYFDALFYTLWQFRFMYANLVIILGRDEELKQKYLGIQQQVLARSSNILQQLKKDKVLDIADDEITPLADTIRMIAGFWISNQLTYSGAANITKSSLYEGLLRVLMLFKAYSTSDSFETFKHLEQHYRTLALEDDQ” the “soluble on expression in E. coli” value was “not soluble”.
In the case of “MRCPGCGAAIQFDDPKKPGYIPREVFEKRLEEGKEILCQRCFRMKHYGKLEPVEFDWDFKNQLKSYLGGFDVVVWVIDIFDFEGTYREDIAEILKGKRVIYVINKIDLLPRAVTVKEIKEWVKKRIKTKNTDDIRIVSAEKNFGLTSLVKYLSRLTDKALVVGVTNVGKSSLLNKICTHENTISPFPGTTLGILKRKVKEANLYLYDTPGIMTSDRILDLLDPECQKRVLPREELSRKTFKPDNGRTIFMGGLCRFDIHFETEKNPIFLLFSSKEVTFHETRRERADELMRNRLGDLLIPPCSKTKFENFKWKRETFTLKEGEELAVAGLGWMSVRRGPFTVEVTVPDSVKLVVREALVNPKRLEHHHHHH”, the “soluble on expression in E. coli” value is reported as “soluble”.
